Test results reported in PMC4226670.

Target: GST-p53 (UniProt P04637)
Assay: fluorescence polarization
Details: FP: 4 nM FAM duplex, 100 mM NaCl, 10 mM Tris-HCl pH 7.5, 10% glycerol, 5 mM DTT, 0.2 mg/mL BSA, room temperature; pull-down: 2 ug duplex with lysate, 90 min …

Sequence of GST-p53 (P04637 whole entry): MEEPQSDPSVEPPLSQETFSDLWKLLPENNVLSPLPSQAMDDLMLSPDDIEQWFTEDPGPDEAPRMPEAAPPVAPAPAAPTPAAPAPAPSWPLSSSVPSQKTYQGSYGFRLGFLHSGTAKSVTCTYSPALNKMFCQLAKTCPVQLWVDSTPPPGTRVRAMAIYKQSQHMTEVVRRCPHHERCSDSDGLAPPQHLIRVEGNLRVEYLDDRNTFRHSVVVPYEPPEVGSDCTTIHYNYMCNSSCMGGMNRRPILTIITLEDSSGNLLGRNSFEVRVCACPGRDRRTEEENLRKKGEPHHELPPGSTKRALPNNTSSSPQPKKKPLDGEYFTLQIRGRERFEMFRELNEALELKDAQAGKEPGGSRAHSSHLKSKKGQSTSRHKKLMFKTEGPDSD

CGCGCCTGCAAGTCCTGACTTGTCCGCGGC (double strand) [PUMA promoter duplex, FAM]
Kd: 29.6 nM
